This note sets out measurements from patent US20230068663A1.

Some targets named below: LAIR1 on reporter cells (UniProt Q6GTX8); LILRA2; LILRA6; LILRB4; LILRB3; LILRA5; LILRA4; LILRB1; LILRB5; LILRA3.
Experiment in all cases: flow cytometry, reporter cells, secondary antibody alone (blank)
(In general: In flow cytometry, cells or beads pass a laser one at a time.)

Assay [1] addresses LILRA1 on reporter cells (extracellular domain) (UniProt O75019).
The target of assay [2] is LILRB2 chimeric receptor on LILRB2 reporter cells (extracellular domain of LILRB2 fused with transmembrane/intracellular domains of PILRb) (UniProt Q8N423).

LILRB1, sequence (chain, as listed by the source limits assumed): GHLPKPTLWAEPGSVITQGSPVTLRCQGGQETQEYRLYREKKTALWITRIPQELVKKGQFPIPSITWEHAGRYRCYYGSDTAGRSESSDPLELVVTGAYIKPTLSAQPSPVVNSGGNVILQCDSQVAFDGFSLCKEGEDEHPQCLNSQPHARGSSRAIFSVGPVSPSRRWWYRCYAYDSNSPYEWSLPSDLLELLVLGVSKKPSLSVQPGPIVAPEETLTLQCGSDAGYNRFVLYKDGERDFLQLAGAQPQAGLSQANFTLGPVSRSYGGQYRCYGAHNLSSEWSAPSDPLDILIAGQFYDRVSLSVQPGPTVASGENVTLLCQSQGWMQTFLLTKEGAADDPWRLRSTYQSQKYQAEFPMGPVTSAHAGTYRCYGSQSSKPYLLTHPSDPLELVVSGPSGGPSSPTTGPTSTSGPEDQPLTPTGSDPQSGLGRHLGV
LILRA3, sequence (chain, as listed by the source limits assumed): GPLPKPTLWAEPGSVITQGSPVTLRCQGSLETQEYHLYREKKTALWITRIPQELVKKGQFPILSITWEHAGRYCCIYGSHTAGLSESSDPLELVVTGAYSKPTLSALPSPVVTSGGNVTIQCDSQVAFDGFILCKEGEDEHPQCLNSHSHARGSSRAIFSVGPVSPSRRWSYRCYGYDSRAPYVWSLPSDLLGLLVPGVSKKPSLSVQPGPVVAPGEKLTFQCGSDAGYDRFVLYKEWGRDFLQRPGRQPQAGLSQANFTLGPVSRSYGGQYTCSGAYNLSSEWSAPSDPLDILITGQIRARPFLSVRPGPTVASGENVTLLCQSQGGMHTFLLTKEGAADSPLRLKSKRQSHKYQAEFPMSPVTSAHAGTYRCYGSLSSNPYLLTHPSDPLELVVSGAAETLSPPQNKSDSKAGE
LILRA6, sequence (chain, as listed by the source limits assumed): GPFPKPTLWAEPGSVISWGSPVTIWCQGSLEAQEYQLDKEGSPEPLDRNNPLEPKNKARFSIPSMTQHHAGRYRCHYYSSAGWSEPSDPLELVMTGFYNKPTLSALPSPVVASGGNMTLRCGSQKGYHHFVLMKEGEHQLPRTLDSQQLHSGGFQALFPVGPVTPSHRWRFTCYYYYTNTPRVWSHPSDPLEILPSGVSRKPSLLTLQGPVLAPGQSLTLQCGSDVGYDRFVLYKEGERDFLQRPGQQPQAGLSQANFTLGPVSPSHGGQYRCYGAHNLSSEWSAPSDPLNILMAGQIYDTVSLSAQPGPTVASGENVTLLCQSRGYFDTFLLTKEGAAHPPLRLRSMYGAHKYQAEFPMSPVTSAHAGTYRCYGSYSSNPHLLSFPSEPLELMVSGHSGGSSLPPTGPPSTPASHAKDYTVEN
LILRA5, sequence (chain, as listed by the source limits assumed): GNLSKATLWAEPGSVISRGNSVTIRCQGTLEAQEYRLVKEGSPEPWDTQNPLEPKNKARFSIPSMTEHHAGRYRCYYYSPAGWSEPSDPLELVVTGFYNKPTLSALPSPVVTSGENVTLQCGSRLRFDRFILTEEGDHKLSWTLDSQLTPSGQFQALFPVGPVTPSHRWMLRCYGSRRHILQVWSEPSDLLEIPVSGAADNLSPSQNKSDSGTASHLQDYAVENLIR
LAIR1 on reporter cells, sequence (Q6GTX8 22-165 limits assumed): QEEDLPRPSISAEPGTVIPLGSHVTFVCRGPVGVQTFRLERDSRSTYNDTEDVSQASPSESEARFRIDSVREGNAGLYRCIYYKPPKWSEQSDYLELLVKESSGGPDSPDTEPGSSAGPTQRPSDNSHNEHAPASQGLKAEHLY
LILRA4, sequence (chain, as listed by the source limits assumed): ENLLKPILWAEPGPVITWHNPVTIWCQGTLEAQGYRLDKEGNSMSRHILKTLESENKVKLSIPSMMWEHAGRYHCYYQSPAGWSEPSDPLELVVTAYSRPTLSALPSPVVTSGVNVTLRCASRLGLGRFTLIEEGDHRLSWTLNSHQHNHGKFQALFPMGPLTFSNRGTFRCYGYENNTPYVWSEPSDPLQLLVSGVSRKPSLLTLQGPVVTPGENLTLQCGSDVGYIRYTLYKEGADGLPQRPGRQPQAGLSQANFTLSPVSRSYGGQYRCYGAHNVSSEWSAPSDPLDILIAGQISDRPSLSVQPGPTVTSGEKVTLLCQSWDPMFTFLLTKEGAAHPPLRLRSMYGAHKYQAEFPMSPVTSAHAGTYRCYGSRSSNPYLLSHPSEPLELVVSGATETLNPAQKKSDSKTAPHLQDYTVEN
LILRA1 on reporter cells (extracellular domain), sequence (O75019 17-461 limits assumed): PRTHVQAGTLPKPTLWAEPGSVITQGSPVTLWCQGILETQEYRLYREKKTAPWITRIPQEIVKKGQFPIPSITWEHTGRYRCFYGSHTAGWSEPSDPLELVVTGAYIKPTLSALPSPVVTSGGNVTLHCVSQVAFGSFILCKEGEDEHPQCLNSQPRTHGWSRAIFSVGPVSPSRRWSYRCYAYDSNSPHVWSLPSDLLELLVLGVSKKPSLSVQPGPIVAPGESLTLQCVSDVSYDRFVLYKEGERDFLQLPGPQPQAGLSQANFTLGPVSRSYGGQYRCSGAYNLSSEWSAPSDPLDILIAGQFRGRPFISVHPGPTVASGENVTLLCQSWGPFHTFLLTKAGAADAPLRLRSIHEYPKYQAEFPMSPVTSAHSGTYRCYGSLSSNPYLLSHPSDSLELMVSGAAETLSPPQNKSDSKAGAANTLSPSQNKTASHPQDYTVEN
LILRA2, sequence (chain, as listed by the source limits assumed): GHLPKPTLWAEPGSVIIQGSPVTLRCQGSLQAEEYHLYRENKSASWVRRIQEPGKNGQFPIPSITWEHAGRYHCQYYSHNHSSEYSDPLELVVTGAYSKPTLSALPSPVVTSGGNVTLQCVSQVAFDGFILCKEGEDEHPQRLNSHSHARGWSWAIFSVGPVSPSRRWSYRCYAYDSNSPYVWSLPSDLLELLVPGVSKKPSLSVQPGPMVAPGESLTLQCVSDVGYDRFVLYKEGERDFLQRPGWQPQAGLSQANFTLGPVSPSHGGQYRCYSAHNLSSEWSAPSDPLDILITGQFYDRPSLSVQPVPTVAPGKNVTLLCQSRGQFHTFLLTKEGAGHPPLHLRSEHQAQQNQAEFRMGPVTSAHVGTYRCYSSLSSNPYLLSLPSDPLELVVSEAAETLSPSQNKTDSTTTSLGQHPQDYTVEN
LILRB5, sequence (chain, as listed by the source limits assumed): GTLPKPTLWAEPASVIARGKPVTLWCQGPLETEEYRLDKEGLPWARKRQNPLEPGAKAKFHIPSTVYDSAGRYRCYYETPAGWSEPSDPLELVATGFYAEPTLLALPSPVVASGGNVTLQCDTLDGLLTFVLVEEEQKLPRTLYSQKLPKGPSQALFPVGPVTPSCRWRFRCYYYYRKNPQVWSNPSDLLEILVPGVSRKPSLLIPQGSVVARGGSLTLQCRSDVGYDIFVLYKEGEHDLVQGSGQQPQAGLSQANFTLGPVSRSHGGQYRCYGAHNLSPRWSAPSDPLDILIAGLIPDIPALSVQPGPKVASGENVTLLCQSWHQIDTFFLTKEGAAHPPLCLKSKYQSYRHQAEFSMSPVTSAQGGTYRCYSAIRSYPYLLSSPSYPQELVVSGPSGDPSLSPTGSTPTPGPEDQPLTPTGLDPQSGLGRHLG

As to 2nd Ab (antibody), the MFI with LAIR1 on reporter cells is 23; in the assay with LILRA2 it was 9; with LILRA6, 10; with LILRB4, 13; in assay [1] it was 10; in [2], 10. Also, the MFI stood at 9 with LILRB3; 11 with LILRA5; 10 in the assay with LILRA4; 9 in the assay with LILRB1; 11 in the assay with LILRB5; 10 with LILRA3.
